# Source: patent publication US20140271457A1 (AbbVie / Abbott, published 2014)
# Assays:
# [1] = target: T1, Recombinant Human TNF-α/TNFSF1A (human, UniProt P01375 77-233); assay: Biacore SPR
# T1 construct: vendor reagent is named for Biacore; the neutralization assay says only huTNFα; also called huTNFα
# In short: (§1)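 Antibodies or DVD-Ig captured on anti-mouse IgG (Fcγ) CM5 surface, SPR at 25 °C in HBS-EP+. Antigen at 0.8–100 nM, 50 μl/min; association 5 min, dissociation 10 min. kon and koff came from a global 1:1 fit with local Rmax.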
# Recombinant Human IL-13 = Recombinant Human IL-13 (human, UniProt P35225 35-146, limits assumed); assay: Biacore SPR
# In short: as §1
# [2] = target: T1, Recombinant Human TNF-α/TNFSF1A; assay: cell-based or functional assay
# Recombinant Human β-NGF = Recombinant Human β-NGF (human, UniProt P01138 122-241); assay: cell-based or functional assay
# Recombinant Human β-NGF, sequence (P01138 122-241 limits assumed): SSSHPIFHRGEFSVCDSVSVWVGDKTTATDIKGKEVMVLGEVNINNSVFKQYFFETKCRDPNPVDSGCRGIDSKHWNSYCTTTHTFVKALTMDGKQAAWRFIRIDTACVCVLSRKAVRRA
# T1 sequence (P01375 77-233 limits assumed): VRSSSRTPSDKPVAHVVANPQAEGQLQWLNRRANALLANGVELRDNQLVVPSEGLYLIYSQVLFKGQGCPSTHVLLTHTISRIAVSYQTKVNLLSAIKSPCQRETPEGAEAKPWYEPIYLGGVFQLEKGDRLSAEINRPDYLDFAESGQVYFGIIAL
# Recombinant Human IL-13, sequence (P35225 35-146 limits assumed): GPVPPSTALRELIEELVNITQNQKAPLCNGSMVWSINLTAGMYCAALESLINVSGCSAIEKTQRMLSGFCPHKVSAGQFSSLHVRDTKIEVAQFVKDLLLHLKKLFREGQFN
Binder,Kd [1] [pM],koff [1] [s⁻¹],kon [1] [M⁻¹ s⁻¹],Kd (Recombinant Human IL-13) [pM],koff (Recombinant Human IL-13) [s⁻¹],kon (Recombinant Human IL-13) [M⁻¹ s⁻¹],C-Terminal VD huTNFα Neutralization Assay IC50 [2] [pM],N-Terminal VD huTNFα Neutralization Assay IC50 [2] [pM],N-Terminal VD NGF Neutralization Assay IC50 (Recombinant Human β-NGF) [pM],huTNFα Neutralization Assay IC50 [2] [pM],C-Terminal VD NGF Neutralization Assay IC50 (Recombinant Human β-NGF) [pM]
"DVD3168 (bispecific antibody, IgG1, DVD-Ig; wt hIgG1 + kappa constants) VH: EVQLVQSGAEVKKPGASVKVSCKASGYTFTSYWMHWVRQAPGQGLEWIGNINPKGGSNIYNEKFQGRVTMTRDTSISTAYMELSRLRSDDTAVYYCARLDYFGDSFDLWGQGTTVTVSSGGGGSGGGGSEVQLVQSGAEVKKPGASVKVSCKASGYTFANYGIIWVRQAPGQGLEWMGWINTYTGKPTYAQKFQGRVTMTTDTSTSTAYMELSSLRSEDTAVYYCARKLFTTMDVTDNAMDYWGQGTTVTVSS VL: DIQMTQSPSSLSASVGDRVTITCRASQGIRNYLNWYQQKPGKAPKLLIYYASNLEVGVPSRFSGSGSGTDYTLTISSLQPEDFATYYCQQDNRFPYTFGGGTKVEIKRGGSGGGGSGDIQMTQSPSSLSASVGDRVTITCRASQDISQYLNWYQQKPGKAPKLLIYYTSRLQSGVPSRFSGSGSGTDFTLTISSLQPEDFATYFCQQGNTWPPTFGQGTKLEIKR",45,3.6e-05,800000,64,7.4e-05,1.1e+06,146,–,–,–,–
"DVD3106 (bispecific antibody, IgG1, DVD-Ig; wt hIgG1 + kappa constants) VH: EVQLVQSGAEVKKPGASVKVSCKASGYTFANYGIIWVRQAPGQGLEWMGWINTYTGKPTYAQKFQGRVTMTTDTSTSTAYMELSSLRSEDTAVYYCARKLFTTMDVTDNAMDYWGQGTTVTVSSASTKGPEVQLVQSGAEVKKPGASVKVSCKASGYTFTTYGVSWVRQAPGQGLEWMGEIYPGNYNTYYNEKFRGRVTMTTDTSTSTAYMELRSLRSDDTAVYYCARWRTSYFSDYGYFDYWGQGTTVTVSS VL: DIQMTQSPSSLSASVGDRVTITCRASQDISQYLNWYQQKPGKAPKLLIYYTSRLQSGVPSRFSGSGSGTDFTLTISSLQPEDFATYFCQQGNTWPPTFGQGTKLEIKRTVAAPSVFIFPPDVVMTQSPLSLPVTLGQPASISCRSSQSLVHSHGNTYLHWYQQRPGQSPRLLIYTVSNRFSGVPDRFSGSGSGTDFTLKISRVEAEDVGVYYCSQSTHVPYTFGGGTKVEIKR",22,8.5e-05,3.9e+06,110,6.4e-05,570000,–,18,–,–,–
"DVD3169 (bispecific antibody, IgG1, DVD-Ig; wt hIgG1 + kappa constants) VH: EVQLVQSGAEVKKPGASVKVSCKASGYTFTSYWMHWVRQAPGQGLEWIGNINPKGGSNIYNEKFQGRVTMTRDTSISTAYMELSRLRSDDTAVYYCARLDYFGDSFDLWGQGTTVTVSSASTKGPEVQLVQSGAEVKKPGASVKVSCKASGYTFANYGIIWVRQAPGQGLEWMGWINTYTGKPTYAQKFQGRVTMTTDTSTSTAYMELSSLRSEDTAVYYCARKLFTTMDVTDNAMDYWGQGTTVTVSS VL: DIQMTQSPSSLSASVGDRVTITCRASQGIRNYLNWYQQKPGKAPKLLIYYASNLEVGVPSRFSGSGSGTDYTLTISSLQPEDFATYYCQQDNRFPYTFGGGTKVEIKRTVAAPDIQMTQSPSSLSASVGDRVTITCRASQDISQYLNWYQQKPGKAPKLLIYYTSRLQSGVPSRFSGSGSGTDFTLTISSLQPEDFATYFCQQGNTWPPTFGQGTKLEIKR",< 1.5,< 1e-06,650000,10,2e-05,1.9e+06,169,–,–,–,–
"DVD3046 (bispecific antibody, IgG1) VH: EVQLVESGGGLVQPGGSLRLSCAASGFSLTNNNVNWVRQAPGKGLEWVGGVWAGGATDYNSALKSRFTISRDNSKNTAYLQMNSLRAEDTAVYYCARDGGYSSSTLYAMDAWGQGTLVTVSSASTKGPEVQLVQSGAEVKKPGASVKVSCKASGYTFNNYGIIWVRQAPGQGLEWMGWINTYTGKPTYAQKFQGRVTMTTDTSTSTAYMELSSLRSEDTAVYYCARKLFNTVAVTDNAMDYWGQGTTVTVSS VL: DIQMTQSPSSLSASVGDRVTITCRASEDIYNALAWYQQKPGKAPKLLIYNTDTLHTGVPSRFSGSGSGTDYTLTISSLQPEDFATYFCQHYFHYPRTFGQGTKVEIKRTVAAPSVFIFPPDIQMTQSPSSLSASVGDRVTITCRASQDIENYLNWYQQKPGKAPKLLIYYTSRLQSGVPSRFSGSGSGTDFTLTISSLQPEDFATYFCQQGNTQPPTFGQGTKLEIKR",–,–,–,–,–,–,50,–,145,–,–
"DVD3163 (bispecific antibody, IgG1, DVD-Ig; wt hIgG1 + kappa constants) VH: EVQLVQSGAEVKKPGASVKVSCKASGYTFANYGIIWVRQAPGQGLEWMGWINTYTGKPTYAQKFQGRVTMTTDTSTSTAYMELSSLRSEDTAVYYCARKLFTTMDVTDNAMDYWGQGTTVTVSSGGGGSGGGGSEVQLVQSGAEVKKPGASVKVSCKASGYTFTSYWMHWVRQAPGQGLEWIGNINPKGGSNIYNEKFQGRVTMTRDTSISTAYMELSRLRSDDTAVYYCARLDYFGDSFDLWGQGTTVTVSS VL: DIQMTQSPSSLSASVGDRVTITCRASQDISQYLNWYQQKPGKAPKLLIYYTSRLQSGVPSRFSGSGSGTDFTLTISSLQPEDFATYFCQQGNTWPPTFGQGTKLEIKRGGSGGGGSGDIQMTQSPSSLSASVGDRVTITCRASQGIRNYLNWYQQKPGKAPKLLIYYASNLEVGVPSRFSGSGSGTDYTLTISSLQPEDFATYYCQQDNRFPYTFGGGTKVEIKR",3.9,5e-05,1.3e+07,610,8.4e-05,140000,–,15,–,–,–
"DVD3107 (bispecific antibody, IgG1, DVD-Ig; wt hIgG1 + kappa constants) VH: EVQLVQSGAEVKKPGASVKVSCKASGYTFANYGIIWVRQAPGQGLEWMGWINTYTGKPTYAQKFQGRVTMTTDTSTSTAYMELSSLRSEDTAVYYCARKLFTTMDVTDNAMDYWGQGTTVTVSSASTKGPSVFPLAPEVQLVQSGAEVKKPGASVKVSCKASGYTFTTYGVSWVRQAPGQGLEWMGEIYPGNYNTYYNEKFRGRVTMTTDTSTSTAYMELRSLRSDDTAVYYCARWRTSYFSDYGYFDYWGQGTTVTVSS VL: DIQMTQSPSSLSASVGDRVTITCRASQDISQYLNWYQQKPGKAPKLLIYYTSRLQSGVPSRFSGSGSGTDFTLTISSLQPEDFATYFCQQGNTWPPTFGQGTKLEIKRTVAAPDVVMTQSPLSLPVTLGQPASISCRSSQSLVHSHGNTYLHWYQQRPGQSPRLLIYTVSNRFSGVPDRFSGSGSGTDFTLKISRVEAEDVGVYYCSQSTHVPYTFGGGTKVEIKR",53,0.00015,2.8e+06,87,7e-05,810000,–,15,–,–,–
"AB441 (antibody, V domains shown, parent antibody) VH: EVQLVQSGAEVKKPGASVKVSCKASGYTFANYGIIWVRQAPGQGLEWMGWINTYTGKPTYAQKFQGRVTMTTDTSTSTAYMELSSLRSEDTAVYYCARKLFTTMDVTDNAMDYWGQGTTVTVSS VL: DIQMTQSPSSLSASVGDRVTITCRASQDISQYLNWYQQKPGKAPKLLIYYTSRLQSGVPSRFSGSGSGTDFTLTISSLQPEDFATYFCQQGNTWPPTFGQGTKLEIKR",2.4,1.8e-05,7.5e+06,–,–,–,–,–,–,37,–
"DVD3042 (bispecific antibody, IgG1) VH: EVQLVQSGAEVKKPGASVKVSCKASGYTFNNYGIIWVRQAPGQGLEWMGWINTYTGKPTYAQKFQGRVTMTTDTSTSTAYMELSSLRSEDTAVYYCARKLFNTVAVTDNAMDYWGQGTTVTVSSASTKGPSVFPLAPEVQLVESGGGLVQPGGSLRLSCAASGFSLTNNNVNWVRQAPGKGLEWVGGVWAGGATDYNSALKSRFTISRDNSKNTAYLQMNSLRAEDTAVYYCARDGGYSSSTLYAMDAWGQGTLVTVSS VL: DIQMTQSPSSLSASVGDRVTITCRASQDIENYLNWYQQKPGKAPKLLIYYTSRLQSGVPSRFSGSGSGTDFTLTISSLQPEDFATYFCQQGNTQPPTFGQGTKLEIKRTVAAPDIQMTQSPSSLSASVGDRVTITCRASEDIYNALAWYQQKPGKAPKLLIYNTDTLHTGVPSRFSGSGSGTDYTLTISSLQPEDFATYFCQHYFHYPRTFGQGTKVEIKR",–,–,–,–,–,–,–,6,–,–,> 10000
"DVD3164 (bispecific antibody, IgG1, DVD-Ig; wt hIgG1 + kappa constants) VH: EVQLVQSGAEVKKPGASVKVSCKASGYTFANYGIIWVRQAPGQGLEWMGWINTYTGKPTYAQKFQGRVTMTTDTSTSTAYMELSSLRSEDTAVYYCARKLFTTMDVTDNAMDYWGQGTTVTVSSASTKGPEVQLVQSGAEVKKPGASVKVSCKASGYTFTSYWMHWVRQAPGQGLEWIGNINPKGGSNIYNEKFQGRVTMTRDTSISTAYMELSRLRSDDTAVYYCARLDYFGDSFDLWGQGTTVTVSS VL: DIQMTQSPSSLSASVGDRVTITCRASQDISQYLNWYQQKPGKAPKLLIYYTSRLQSGVPSRFSGSGSGTDFTLTISSLQPEDFATYFCQQGNTWPPTFGQGTKLEIKRTVAAPDIQMTQSPSSLSASVGDRVTITCRASQGIRNYLNWYQQKPGKAPKLLIYYASNLEVGVPSRFSGSGSGTDYTLTISSLQPEDFATYYCQQDNRFPYTFGGGTKVEIKR",16,6.5e-05,4e+06,870,4.8e-05,55000,–,21,–,–,–
"DVD3166 (bispecific antibody, IgG1, DVD-Ig; wt hIgG1 + kappa constants) VH: EVQLVQSGAEVKKPGASVKVSCKASGYTFANYGIIWVRQAPGQGLEWMGWINTYTGKPTYAQKFQGRVTMTTDTSTSTAYMELSSLRSEDTAVYYCARKLFTTMDVTDNAMDYWGQGTTVTVSSASTKGPEVQLVQSGAEVKKPGASVKVSCKASGYTFTSYWMHWVRQAPGQGLEWIGNINPKGGSNIYNEKFQGRVTMTRDTSISTAYMELSRLRSDDTAVYYCARLDYFGDSFDLWGQGTTVTVSS VL: DIQMTQSPSSLSASVGDRVTITCRASQDISQYLNWYQQKPGKAPKLLIYYTSRLQSGVPSRFSGSGSGTDFTLTISSLQPEDFATYFCQQGNTWPPTFGQGTKLEIKRTVAAPSVFIFPPDIQMTQSPSSLSASVGDRVTITCRASQGIRNYLNWYQQKPGKAPKLLIYYASNLEVGVPSRFSGSGSGTDYTLTISSLQPEDFATYYCQQDNRFPYTFGGGTKVEIKR",27,0.00013,4.7e+06,180,5.1e-05,280000,–,16,–,–,–
